In test [1] the target is ASB9–EloBC ternary complex (ankyrin-repeat and SOCS-box protein 9, Elongin B, Elongin C) (human) (UniProt Q96DX5). In words: native MS; nanoESI–MS of the reconstituted ASB9–EloBC–Cul5NTD sample at three concentrations; 500 mM ammonium acetate, pH 7.0.
Test [2] shares this target. The test is described as follows: ITC; 288 K; Cul5NTD (450 μM) titrated into ASB9–EloBC (60 μM) in the cell; 50 mM HEPES, 100 mM NaCl, pH 7.5, 1 mM TCEP; one-set-of-sites model.
Test [3] shares this target. In words: ITC; 303 K; Cul5NTD (450 μM) titrated into ASB9–EloBC (60 μM) in the cell; 50 mM HEPES, 100 mM NaCl, pH 7.5, 1 mM TCEP; one-set-of-sites model.
Test [4] shares this target. The test is described as follows: ITC; 298 K; Cullin NTD (450 μM) titrated into ASB9–EloBC (60 μM) in the cell; 50 mM HEPES, 100 mM NaCl, pH 7.5, 1 mM TCEP; one-set-of-sites model.
For test [5] the target is unchanged. In words: differential scanning fluorimetry; 2 μM ASB9–EloBC with Cul5NTD at 8, 4, 2, 1, 0.5 and 0.25 μM; Sypro Orange; 50 mM HEPES, 100 mM NaCl, pH 7.5, 1 mM TCEP; 37 to 95 °C at 1 °C/min.
For test [6], the target named is T1, Cullin 5 N-terminal domain (residues 1–386, V341R, L345D) (human, UniProt Q93034 1-386, V341R | L345D). The test is described as follows: ITC; 288 K.
The target of test [7] is T1, Cullin 5 N-terminal domain (residues …). In words: ITC; 293 K.
The target is the same in test [8]. The test is described as follows: ITC; 303 K.

For “Cullin 5 N-terminal domain (residues 1–386, V341R, L345D) (from UniProt Q93034 1-386) (domain or fragment)”, the stoichiometry N in test [1] and in test [4] was 1 throughout. Further, the dH is -3 kcal/mol in test [2], -8.3 kcal/mol in test [3] and -6 kcal/mol in test [4]. For the same molecule, in test [4], the Kd turned out to be 220 nM. The ΔTm in test [5] stood at 4.6 °C.

B1: ASB9–EloBC ternary complex (ankyrin-repeat and SOCS-box protein 9, Elongin B, Elongin C) (complex)
chain 1: SDWSPMHEAAIHGHQLSLRNLISQGWAVNIITADHVSPLHEACLGGHLSCVKILLKHGAQVNGVTADWHTPLFNACVSGSWDCVNLLLQHGASVQPESDLASPIHEAARRGHVECVNSLIAYGGNIDHKISHLGTPLYLACENQQRACVKKLLESGADVNQGKGQDSPLHAVARTASEELACLLMDFGADTQAKNAEGKRPVELVPPESPLAQLFLEREGPPSLMQLCRLRIRKCFGIQQHHKITKLVLPEDLKQFLLHL
chain 2: MDVFLMIRRHKTTIFTDAKESSTVFELKRIVEGILKRPPDEQRLYKDDQLLDDGKTLGECGFTSQTARPQAPATVGLAFRADDTFEALCIEPFSSPPELPDVMKPQDSGSSANEQAVQ
chain 3: MYVKLISSDGHEFIVKREHALTSGTIKAMLSGPGQFAENETNEVNFREIPSHVLSKVCMYFTYKVRYTNSSTEIPEFPIAPEIALELLMAANFLDC
On to B1, for which the Kd is 282 nM in test [6], 119 nM in test [7] and 61 nM in test [8].

For the origin of these results see article PMC3756526 (2013).
